B1: Hairpin Ribozyme (parent)
chain: GUCCUCUUUCACGUGCGCGUGAAAGAGAGAAGUGAACCAGAGAAACACACGUUGUGGUAUAUUACCUGGUA

Variants of B1 are the subject of this series. The series can be described thus: self-cleavage, relative activity (ratio to wild type); higher = more cleavage; co-transcriptional.
In the case of GUCCGCUUUCACGUGCGCGUGAAAGAGAGAAGUGAACCAGAGAAACACACGUUGUGGUAUAUUCCCUGGUA [U5G A64C], the self-cleavage turned out to be 0.155.

In the case of GGCCUCUUUCACGUGCGCGUGAAAGAGAGAAGUGAACCAGAGAAACACACGUUGUGGUAUAUUACCUGGUA [U2G], the self-cleavage stood at 0.348. On to GUCCUCUUUCACCUGCGCGUGAAAGGGAGAAGUGAACCAGAGAAACACACGUUGUGGUAUAUUACCUGGUA [G13C A26G], for which the self-cleavage amounted to 0.492. With GUCCUCUUUCACGUGCGCGUGAAAGAGAGACGUGAACCAGAGAAACACACGUUGAGGUAUAUUACCUGGUA [A31C U55A], the self-cleavage amounted to 0.0627. With GUCCUCUUUCACGUGCGCGUUAAAGAGAGAAGUGAACCAGAGAAACUCACGUUGUGGUAUAUUACCUGGUA [G21U A47U] the figure was 0.123; with GUCCUCUUUCACGUGCGCGUGAUAGAGGGAAGUGAACCAGAGAAACACACGUUGUGGUAUAUUACCUGGUA [A23U A28G], 0.956; with AUCCUCUUUCACGUGCGCGUGAAAGAGAGAGGUGAACCAGAGAAACACACGUUGUGGUAUAUUACCUGGUA [G1A A31G], 0.136. On to GUCCUCUUUCACGUGCGCGUGAAAGAGAGAAGUGAACCAGAGAAUCACACGUUGUGGUACAUUACCUGGUA [A45U U60C], for which the self-cleavage came out at 0.112. In the case of GUCCUCUUUCACGUGCGCGUGAAAGAGAGGAGUGAACCAGAGAAACACACGUUUUGGUAUAUUACCUGGUA [A30G G54U], the self-cleavage was found to be 0.123. For GUCCUCUUUCACGUGCGCGUGAAAGAGAGAAGUGAACCAGAGAAACGCACGUUGUCGUAUAUUACCUGGUA [A47G G56C], the self-cleavage came out at 0.132. For the variant UUCCUCUUUCACGUGCGCGUGAAAGAGAGAAGUGAAACAGAGAAACACACGUUGUGGUAUAUUACCUGGUA [G1U C37A], the self-cleavage is 0.158. In the case of GUCCUCUUUCACGUGCGCGUGAAAGAGAGAAGUGAGCCAGAGAAACAGACGUUGUGGUAUAUUACCUGGUA [A36G C48G], the self-cleavage was determined as 0.259. GUCCUCUUUCACGUGCGCGUGAAAGAGAGAGGUGAACCAGAGAAACACACGUUGUGGUAUAUUACCUAGUA [A31G G68A]: the self-cleavage is 0.189. As for GUCCUCUUUCACGUGCUCGUGAAAGAGAGAAGUGAGCCAGAGAAACACACGUUGUGGUAUAUUACCUGGUA [G17U A36G], the figure is 1.06; as for GUUCUCUUUCACGUGCGCGUGAAAGAGAGAAGUGAACCAGAGAAACACACGUUGUGGUAUAUUACCUGGAA [C3U U70A], 0.305. For the variant GUCCUCUUUCACGUGCGCGUGAAAGAGCGAAGUAAACCAGAGAAACACACGUUGUGGUAUAUUACCUGGUA [A28C G34A], the self-cleavage came to 0.753.

Take GUCCUCUUUCACGUGCGCGUGAAAGAGAGAAGUGAACCACAGAAACACACCUUGUGGUAUAUUACCUGGUA [G40C G51C]: the self-cleavage amounted to 0.127. For the variant GUCCUCAUUCACGUGCGGGUGAAAGAGAGAAGUGAACCAGAGAAACACACGUUGUGGUAUAUUACCUGGUA [U7A C18G], the self-cleavage worked out at 0.802. For the variant GUCCUCUUUCACGAGCGCGUGAAAGAGAGAAGUGAACCAGAGAAACACACGUUGUGGUAUAUUCCCUGGUA [U14A A64C], the self-cleavage is 0.254. Turning to GUCCUCUGUCACGUGCGCGUGAAAGAGAGAAGUGAACCAGAGAAACACACGUUGUGGUUUAUUACCUGGUA [U8G A59U], the self-cleavage came to 0.188. Regarding GUCCUCUUUCACGUGCGCGUGAACGAGAGAAGUGAACCAGAGAAACACACGUUAUGGUAUAUUACCUGGUA [A24C G54A], the self-cleavage stood at 0.547. With GUCCUCUUUCACGUGCGCGUGAAAGAGAGAAGUGAACCAGAGAAACACACGUUGUGGUAUAUAACCUCGUA [U63A G68C], the self-cleavage was determined as 0.225.

Turning to GUCCUAUUUCACGUGCGCGUGAAAGAGAGAAGUGAACCAGAGAAACACACGUUGUGGUAUAUUACCUGGAA [C6A U70A], the self-cleavage was 0.598. Take GUCCUCUUUCACGUGCGCUUGAAGGAGAGAAGUGAACCAGAGAAACACACGUUGUGGUAUAUUACCUGGUA [G19U A24G]: the self-cleavage turned out to be 0.926. As for UUCCUCUUUCACGUGCGCGUGAAAGGGAGAAGUGAACCAGAGAAACACACGUUGUGGUAUAUUACCUGGUA [G1U A26G], the self-cleavage turned out to be 0.314. In the case of GUCCUCUUUCACGUGCGCGUAAAAGAGAGAAGUGAACCAGAGAAACAAACGUUGUGGUAUAUUACCUGGUA [G21A C48A], the self-cleavage worked out at 0.19.

With GUCCUCUUUCACGUGCGCGUCAAAGAGAUAAGUGAACCAGAGAAACACACGUUGUGGUAUAUUACCUGGUA [G21C G29U], the self-cleavage was found to be 0.316. Turning to GUCCUCUUUCACGUGCGCGUGAAAGAGCGAAGUGAACCAGAGAAACACACGUUGUAGUAUAUUACCUGGUA [A28C G56A], the self-cleavage was determined as 0.137. Turning to GUCCUCUUUCACGUGCGCGUGAAAGCGAGAAGUGAACCAAAGAAACACACGUUGUGGUAUAUUACCUGGUA [A26C G40A], the self-cleavage worked out at 0.295. With GUCCUCUUUCACGUGCGCGUGAAAGAGAGAAGUGAACCAAAGAAAAACACGUUGUGGUAUAUUACCUGGUA [G40A C46A], the self-cleavage is 0.184. With GUCCUCUUUCACGUGCGCGAGAAAGAGAGAAGUGAACCAGAGAAACACACGUUGUGGUAUAAUACCUGGUA [U20A U62A], the self-cleavage was found to be 0.239. On to GUCCUCUUUCACGUGCGCGUGGAAGAGAGAAGUGAACCAAAGAAACACACGUUGUGGUAUAUUACCUGGUA [A22G G40A], for which the self-cleavage stood at 0.272. As for GUCCUCCUUCACGUGCGCGUGAAAGAGAGAAGUGAACGAGAGAAACACACGUUGUGGUAUAUUACCUGGUA [U7C C38G], the self-cleavage amounted to 0.202. For the variant GUCCUCUUUCACGUGCACGUGAAAGAGAGAAGUGAACCAGAGAAUCACACGUUGUGGUAUAUUACCUGGUA [G17A A45U], the self-cleavage was 0.13. Turning to GUCCUCUUUCACGUGGGCGUGAAAGAGAGAAGUGAACCAGAGAAACACACGUUGUGGUAUAUAACCUGGUA [C16G U63A], the self-cleavage was found to be 0.15. Turning to GUCAUCUUUCACGUGCGCGUGAAAGAGAGAAGUGAACCAGAGAAACACACGUUGUGGUAUAUUACCCGGUA [C4A U67C], the self-cleavage worked out at 0.0871. As to GUCCUCUUUCACGUGCGCGUGAAAGGAAGAAGUGAACCAGAGAAACACACGUUGUGGUAUAUUACCUGGUA [A26G G27A], the self-cleavage was 0.275.

Consider GUCCGCUUUCACGUGCGCGUGAAAGAGAGAAGUGAACCAGAGAAACACACGUUGUGGUAUAUUACCUUGUA [U5G G68U], for which the self-cleavage turned out to be 0.156.

The values above are taken from the RNAGym collection of RNA variant scans (doi:10.7554/elife.80360).
